{
  "source": "patent US20150374663A1",
  "about": "(UNIVERSITY OF ROCHESTER, published 2015)",
  "binders": {"B1": {"name": "TRAP-binding peptide (TBP), TPLSYLKGLVTVG (peptide)", "peptide": "TPLSYLKGLVTVG-OH", "modifications": "also: fluorescent cadaverine label in bone wafer experiment, position not given here", "notes": "also called TRAP peptide"}, "B2": {"name": "10% TBP-functionalized PEG polymer (pTBP) of Table 4, M:CTA:I 300:1:0.1, Mn 40.1 kDa (other)", "peptide": "TPLSYLKGLVTVG-OH", "modifications": "not fully specified (N-terminus); also: copolymerized by RAFT with PEG methyl ether methacrylate (300 Da), ~9 peptides per chain, fluorescently labelled for bone-targeting studies, position not given here", "notes": "Random copolymer; Footnote e says it was used for the in vitro and in vivo bone-targeting studies, where it was fluorescently labeled; also called 10% TBP-functionalized polymer"}, "B3": {"name": "scrambled control peptide (SCP), VPVGTLSYLKLTG (peptide)", "peptide": "VPVGTLSYLKLTG-OH", "modifications": "not fully specified; also: fluorescent cadaverine label in bone wafer experiment, position not given here", "notes": "In the bone wafer experiment it carried a fluorescent cadaverine label; also called scrambled peptide"}},
  "key": {"[1]": {"target": "T1, type V tartrate-resistant acid phosphatase (TRAP) protein, immobilised on CM5 sensor chip", "test": "SPR, TRAP-functionalized surface, binding curve fit (n = 2, Ave. ± StDev)"}, "[2]": {"target": "T1, type V tartrate-resistant acid …", "test": "SPR, TRAP-functionalized surface, binding curve fit", "method": "Quantitative analyses of peptide and polymer affinities were performed using SPR. […] The binding of any molecules to the surface of the sensor chips results in a change in the angle of incident light reflection, allowing highly-sensitive detection of miniscule amounts of ligand binding to the surface. Target affinity can be determined by introduction of increasing concentrations of the molecule to the surface (FIG. 38A and FIG. 38B). […] The binding response is measured and plotted against concentration, allowing for a fitting of the data by a binding curve. From this fitting, values such as the dissociation constant (KD) value can be determined. Through this technique, the affinity of peptides and peptide-functionalized polymers were analyzed."}, "[3]": {"target": "T1, type V tartrate-resistant acid …", "test": "SPR, TRAP amine-coupled to CM5 chip, steady-state response vs concentration fit", "method": "Surface plasmon resonance (SPR) is used to assess the affinity of peptides for TRAP. Series S Sensor CM5 Chips are functionalized with TRAP via 1-ethyl-3-(3-dimethylaminopropyl) carbodiimide (EDC)/N-hydroxysuccinimide (NHS) chemistry. Briefly, the chips, which have a carboxymethylated dextran functionality, are activated through the introduction of NHS and EDC. After activation, TRAP protein, at 30 μg/mL in sodium acetate (pH=5), is introduced to the surface. Ethanolamine-hydrochloric acid is used to quench unreacted carboxysuccinimide groups. Peptides are dissolved in running buffer of PBS with 0.005% Tween20. Peptides are analyzed in duplicate at different concentrations. Surface regeneration is achieved using a combination of 1 and 2 M NaCl and 1-50 mM NaOH solutions as necessary.\nTarget affinity can be determined by introducing increasing concentrations of the ligand to the surface. […] The binding response was measured and plotted against concentration (FIG. 4), allowing for a fitting of the data by a binding curve. From this fitting, values such as KD can be determined."}, "[4]": {"target": "T1, type V tartrate-resistant acid …", "test": "SPR, TRAP amine-coupled to CM5 chip, initial rate analysis of sensorgrams", "method": "Surface plasmon resonance (SPR) is used to assess the affinity of peptide-functionalized polymers for TRAP. Series S Sensor CM5 Chips are functionalized with TRAP via 1-ethyl-3-(3-dimethylaminopropyl) carbodiimide (EDC)/N-hydroxysuccinimide (NHS) chemistry. Briefly, the chips, which have a carboxymethylated dextran functionality, are activated through the introduction of NHS and EDC. After activation, TRAP protein, at 30 μg/mL in sodium acetate (pH=5), is introduced to the surface. Ethanolamine-hydrochloric acid is used to quench unreacted carboxysuccinimide groups. Polymers are dissolved in running buffer of PBS with 0.005% Tween20. Polymers are analyzed in duplicate at different concentrations. Surface regeneration is achieved using 1-10 mM NaOH solutions as necessary. […] Sensorgram data (FIG. 22) are exported from the SPR evaluation software after smoothing data of injection events and analyzed. Response units (RU) are converted into concentrations for rate analysis using the equation:\nWhere S is the concentration of polymer bound to the TRAP-functionalized surface and MW is the molecular weight of the polymer. The binding rates of polymers to TRAP are determined in the initial linear portion of association, within two seconds of the start of injection. […]"}, "[5]": {"target": "T2, TRAP deposited by osteoclasts on human cortical bone wafers (human, UniProt P13686 22-325, limits assumed)", "T2 construct": "The protein is native TRAP deposited on bone, not purified; also called bone wafers decorated with TRAP; resorption pits", "T2 sequence (looked up)": "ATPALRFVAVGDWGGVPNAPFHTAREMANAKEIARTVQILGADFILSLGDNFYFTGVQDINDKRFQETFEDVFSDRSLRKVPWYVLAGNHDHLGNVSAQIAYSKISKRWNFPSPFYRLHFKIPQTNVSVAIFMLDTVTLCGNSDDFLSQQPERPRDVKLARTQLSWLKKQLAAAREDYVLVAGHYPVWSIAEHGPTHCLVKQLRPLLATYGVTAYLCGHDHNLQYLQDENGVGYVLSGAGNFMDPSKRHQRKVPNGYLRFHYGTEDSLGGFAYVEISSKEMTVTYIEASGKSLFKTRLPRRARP", "test": "confocal imaging of fluorescently labeled peptide incubated overnight on human cortical bone wafers", "experimental": "Equal concentrations of fluorescently labeled TBP and SCP are prepared in 1× phosphate-buffered saline (PBS). Bone wafers are cut from cortical bone obtained from the femur of a human donor cadaver and incubated in peptide solutions overnight, washed twice with 1×PBS, and then visualized via confocal imaging. Stacked sections are compressed into 2D images to allow for qualitative analysis as in FIG. 3A through FIG. 3D."}},
  "note": "Ends that are not written are not given here.",
  "data": [
    {"binder": "B1", "values": [
      {"measurement": "Kd", "setting": "[1]", "value": 795, "unit": "µM"},
      {"measurement": "Kd", "setting": "[2]", "value": "~700", "unit": "µM"},
      {"measurement": "Kd", "setting": "[3]", "value": "~200", "unit": "µM"}
    ]},
    {"binder": "B2", "values": [
      {"measurement": "Kd", "setting": "[4]", "value": 60, "unit": "µM"}
    ]},
    {"binder": "B3", "values": [
      {"measurement": "binding result", "setting": "[5]", "value": "no binding"}
    ]}
  ]
}
